B1: DVD3084 (bispecific antibody, IgG1)
VH: EVQLVESGGGLVQPGGSLRLSCAASGFTFSNYGVTWVRQAPGKGLEWVSMIWADGSTHYASSVKGRFTISRDNSKNTLYLQMNSLRAEDTAVYYCAREWQHGPVAYWGQGTLVTVSSASTKGPEVQLVQSGAEVKKPGASVKVSCKASGYTFTTYGVSWVRQAPGQGLEWMGEIYPGNYNTYYNEKFRGRVTMTTDTSTSTAYMELRSLRSDDTAVYYCARWRTSYFSDYGYFDYWGQGTTVTVSS
VL: DIQMTQSPSSLSASVGDRVTITCRASQLVSSAVAWYQQKPGKAPKLLIYWASARHTGVPSRFSGSGSGTDFTLTISSLQPEDFATYYCQQHYKTPFTFGQGTKLEIKRTVAAPDVVMTQSPLSLPVTLGQPASISCRSSQSLVHSHGNTYLHWYQQRPGQSPRLLIYTVSNRFSGVPDRFSGSGSGTDFTLKISRVEAEDVGVYYCSQSTHVPYTFGGGTKVEIKR
notes: DVD-Ig; wt hIgG1 + kappa constants
B2: DVD3086 (bispecific antibody, IgG1)
VH: EVQLVESGGGLVQPGGSLRLSCAASGFTFSNYGVTWVRQAPGKGLEWVSMIWADGSTHYASSVKGRFTISRDNSKNTLYLQMNSLRAEDTAVYYCAREWQHGPVAYWGQGTLVTVSSASTKGPEVQLVQSGAEVKKPGASVKVSCKASGYTFTTYGVSWVRQAPGQGLEWMGEIYPGNYNTYYNEKFRGRVTMTTDTSTSTAYMELRSLRSDDTAVYYCARWRTSYFSDYGYFDYWGQGTTVTVSS
VL: DIQMTQSPSSLSASVGDRVTITCRASQLVSSAVAWYQQKPGKAPKLLIYWASARHTGVPSRFSGSGSGTDFTLTISSLQPEDFATYYCQQHYKTPFTFGQGTKLEIKRTVAAPSVFIFPPDVVMTQSPLSLPVTLGQPASISCRSSQSLVHSHGNTYLHWYQQRPGQSPRLLIYTVSNRFSGVPDRFSGSGSGTDFTLKISRVEAEDVGVYYCSQSTHVPYTFGGGTKVEIKR
notes: as for B1
B3: DVD3096 (bispecific antibody, IgG1)
VH: EVQLVESGGGLVQPGGSLRLSCAASGFTFSNYGVEWVRQAPGKGLEWVSGIWADGSTHYADTVKSRFTISRDNSKNTLYLQMNSLRAEDTAVYYCAREWQHGPVAYWGQGTLVTVSSASTKGPEVQLVQSGAEVKKPGASVKVSCKASGYTFTTYGVSWVRQAPGQGLEWMGEIYPGNYNTYYNEKFRGRVTMTTDTSTSTAYMELRSLRSDDTAVYYCARWRTSYFSDYGYFDYWGQGTTVTVSS
VL: DIQMTQSPSSLSASVGDRVTITCKASQLVSSAVAWYQQKPGKAPKLLIYWASTLHTGVPSRFSGSGSGTDFTLTISSLQPEDFATYYCQQHYRTPFTFGQGTKLEIKRTVAAPSVFIFPPDVVMTQSPLSLPVTLGQPASISCRSSQSLVHSHGNTYLHWYQQRPGQSPRLLIYTVSNRFSGVPDRFSGSGSGTDFTLKISRVEAEDVGVYYCSQSTHVPYTFGGGTKVEIKR
notes: as for B1
B4: DVD3094 (bispecific antibody, IgG1)
VH: EVQLVESGGGLVQPGGSLRLSCAASGFTFSNYGVEWVRQAPGKGLEWVSGIWADGSTHYADTVKSRFTISRDNSKNTLYLQMNSLRAEDTAVYYCAREWQHGPVAYWGQGTLVTVSSASTKGPEVQLVQSGAEVKKPGASVKVSCKASGYTFTTYGVSWVRQAPGQGLEWMGEIYPGNYNTYYNEKFRGRVTMTTDTSTSTAYMELRSLRSDDTAVYYCARWRTSYFSDYGYFDYWGQGTTVTVSS
VL: DIQMTQSPSSLSASVGDRVTITCKASQLVSSAVAWYQQKPGKAPKLLIYWASTLHTGVPSRFSGSGSGTDFTLTISSLQPEDFATYYCQQHYRTPFTFGQGTKLEIKRTVAAPDVVMTQSPLSLPVTLGQPASISCRSSQSLVHSHGNTYLHWYQQRPGQSPRLLIYTVSNRFSGVPDRFSGSGSGTDFTLKISRVEAEDVGVYYCSQSTHVPYTFGGGTKVEIKR
notes: as for B1
B5: DVD3008 (bispecific antibody, IgG1)
VH: EVQLVQSGAEVKKPGASVKVSCKASGYTFNNYGIIWVRQAPGQGLEWMGWINTYTGKPTYAQKFQGRVTMTTDTSTSTAYMELSSLRSEDTAVYYCARKLFNTVAVTDNAMDYWGQGTTVTVSSGGGGSGGGGSEVTLRESGPGLVKPTQTLTLTCTLYGFSLSTSDMGVDWIRQPPGKGLEWLAHIWWDDVKRYNPALKSRLTISKDTSKNQVVLKLTSVDPVDTATYYCARTVSSGYIYYAMDYWGQGTLVTVSS
VL: DIQMTQSPSSLSASVGDRVTITCRASQDIENYLNWYQQKPGKAPKLLIYYTSRLQSGVPSRFSGSGSGTDFTLTISSLQPEDFATYFCQQGNTQPPTFGQGTKLEIKRGGSGGGGSGDIQMTQSPSSLSASVGDRVTISCRASQDIRNYLNWYQQKPGKAPKLLIFYTSKLHSGVPSRFSGSGSGTDYTLTISSLQPEDIATYYCQQGLTPPLTFGGGTKVEIKR
notes: as for B1
B6: DVD3009 (bispecific antibody, IgG1)
VH: EVQLVQSGAEVKKPGASVKVSCKASGYTFNNYGIIWVRQAPGQGLEWMGWINTYTGKPTYAQKFQGRVTMTTDTSTSTAYMELSSLRSEDTAVYYCARKLFNTVAVTDNAMDYWGQGTTVTVSSASTKGPEVTLRESGPGLVKPTQTLTLTCTLYGFSLSTSDMGVDWIRQPPGKGLEWLAHIWWDDVKRYNPALKSRLTISKDTSKNQVVLKLTSVDPVDTATYYCARTVSSGYIYYAMDYWGQGTLVTVSS
VL: DIQMTQSPSSLSASVGDRVTITCRASQDIENYLNWYQQKPGKAPKLLIYYTSRLQSGVPSRFSGSGSGTDFTLTISSLQPEDFATYFCQQGNTQPPTFGQGTKLEIKRTVAAPDIQMTQSPSSLSASVGDRVTISCRASQDIRNYLNWYQQKPGKAPKLLIFYTSKLHSGVPSRFSGSGSGTDYTLTISSLQPEDIATYYCQQGLTPPLTFGGGTKVEIKR
notes: as for B1
B7: DVD3083 (bispecific antibody, IgG1)
VH: EVQLVESGGGLVQPGGSLRLSCAASGFTFSNYGVTWVRQAPGKGLEWVSMIWADGSTHYASSVKGRFTISRDNSKNTLYLQMNSLRAEDTAVYYCAREWQHGPVAYWGQGTLVTVSSGGGGSGGGGSEVQLVQSGAEVKKPGASVKVSCKASGYTFTTYGVSWVRQAPGQGLEWMGEIYPGNYNTYYNEKFRGRVTMTTDTSTSTAYMELRSLRSDDTAVYYCARWRTSYFSDYGYFDYWGQGTTVTVSS
VL: DIQMTQSPSSLSASVGDRVTITCRASQLVSSAVAWYQQKPGKAPKLLIYWASARHTGVPSRFSGSGSGTDFTLTISSLQPEDFATYYCQQHYKTPFTFGQGTKLEIKRGGSGGGGSGDVVMTQSPLSLPVTLGQPASISCRSSQSLVHSHGNTYLHWYQQRPGQSPRLLIYTVSNRFSGVPDRFSGSGSGTDFTLKISRVEAEDVGVYYCSQSTHVPYTFGGGTKVEIKR
notes: as for B1
B8: DVD3093 (bispecific antibody, IgG1)
VH: EVQLVESGGGLVQPGGSLRLSCAASGFTFSNYGVEWVRQAPGKGLEWVSGIWADGSTHYADTVKSRFTISRDNSKNTLYLQMNSLRAEDTAVYYCAREWQHGPVAYWGQGTLVTVSSGGGGSGGGGSEVQLVQSGAEVKKPGASVKVSCKASGYTFTTYGVSWVRQAPGQGLEWMGEIYPGNYNTYYNEKFRGRVTMTTDTSTSTAYMELRSLRSDDTAVYYCARWRTSYFSDYGYFDYWGQGTTVTVSS
VL: DIQMTQSPSSLSASVGDRVTITCKASQLVSSAVAWYQQKPGKAPKLLIYWASTLHTGVPSRFSGSGSGTDFTLTISSLQPEDFATYYCQQHYRTPFTFGQGTKLEIKRGGSGGGGSGDVVMTQSPLSLPVTLGQPASISCRSSQSLVHSHGNTYLHWYQQRPGQSPRLLIYTVSNRFSGVPDRFSGSGSGTDFTLKISRVEAEDVGVYYCSQSTHVPYTFGGGTKVEIKR
notes: as for B1

Molecular target: Recombinant Human IL-13 (human, UniProt P35225 35-146, limits assumed)
Assay: Biacore SPR
Method: The BIACORE assay (GE, Healthcare Piscataway, N.J.) determined the affinity of antibodies or DVD-Ig with kinetic measurements of on-rate and off-rate constants. Binding of antibodies or DVD-Ig proteins to a target antigen (for example, a purified recombinant target antigen) was determined by surface plasmon resonance-based measurements with a Biacore T200 using running HBS-EP+buffer from GE Healthcare at 25° C. All chemicals were obtained from GE Healthcare or otherwise from a different source as described in the text. For example, approximately 5000 RU of goat anti-mouse IgG, (Fcγ), fragment specific polyclonal antibody (Pierce Biotechnology Inc, Rockford, Ill.) diluted in 10 mM sodium acetate (pH 4.5) was directly immobilized across a CM5 research grade biosensor chip using a standard amine coupling kit according to manufacturer's instructions. Unreacted moieties on the biosensor surface were blocked with ethanolamine. Modified carboxymethyl dextran surface in flowcell 1 was used as a reference surface. Rate constants were derived by making kinetic binding measurements at different antigen concentrations ranging from 0.8-100 nM. Binding was recorded as a function of time and kinetic rate constants were calculated. In this assay, association rate was evaluated for 5 min and dissociation was monitored for 10 min. For kinetic screening analysis, rate equations derived from the 1:1 binding model were fitted simultaneously to association and dissociation phases of all injections (using global fit analysis with Rmax fit locally to account for capture variations) with the use of Biaevaluation software. Purified antibodies or DVD-Ig proteins were diluted in HEPES-buffered saline for capture across goat anti-mouse IgG specific reaction surfaces. Antibodies or DVD-Ig proteins to be captured as a ligand were injected over reaction matrices at a flow rate of 5 μl/minute. The association and dissociation rate constants, kₒₙ (M⁻¹ s⁻¹) and koff (s⁻¹) were determined under a continuous flow rate of 50 μl/minute. Rate constants were derived by making kinetic binding measurements at different antigen concentrations ranging from 0.8-100 nM. Binding was recorded as a function of time and kinetic rate constants were calculated. In this assay, association rate was evaluated for 5 min and dissociation was monitored for 10 min.

Sequence of Recombinant Human IL-13 (P35225 35-146 limits assumed): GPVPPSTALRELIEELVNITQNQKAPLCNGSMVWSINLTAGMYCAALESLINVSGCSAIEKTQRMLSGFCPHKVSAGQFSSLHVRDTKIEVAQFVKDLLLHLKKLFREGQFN

Binder	Kd	koff	kon
B1	0.012 nM	1.1e-06 s⁻¹	87000 M⁻¹ s⁻¹
B2	< 0.015 nM	< 1e-06 s⁻¹	65000 M⁻¹ s⁻¹
B3	0.00076 nM	5.3e-08 s⁻¹	70000 M⁻¹ s⁻¹
B4	0.067 nM	5.9e-06 s⁻¹	89000 M⁻¹ s⁻¹
B5	0.14 nM	1.5e-05 s⁻¹	110000 M⁻¹ s⁻¹
B6	0.36 nM	3.2e-05 s⁻¹	87000 M⁻¹ s⁻¹
B7	0.038 nM	2e-06 s⁻¹	52000 M⁻¹ s⁻¹
B8	< 0.02 nM	< 1e-06 s⁻¹	51000 M⁻¹ s⁻¹

From patent publication US20140271457A1 (AbbVie / Abbott, published 2014)
